Assay results as given in article PMC5999318 (Molecular cell, 2018).
Values belong to the binder of their own block, whether it stands above or below them.

Columns and labels:
[1] = target: T1, His-tagged CodA, purified recombinant (E. coli, UniProt P25524 1-427); assay: co-IP
T1 sequence (looked up): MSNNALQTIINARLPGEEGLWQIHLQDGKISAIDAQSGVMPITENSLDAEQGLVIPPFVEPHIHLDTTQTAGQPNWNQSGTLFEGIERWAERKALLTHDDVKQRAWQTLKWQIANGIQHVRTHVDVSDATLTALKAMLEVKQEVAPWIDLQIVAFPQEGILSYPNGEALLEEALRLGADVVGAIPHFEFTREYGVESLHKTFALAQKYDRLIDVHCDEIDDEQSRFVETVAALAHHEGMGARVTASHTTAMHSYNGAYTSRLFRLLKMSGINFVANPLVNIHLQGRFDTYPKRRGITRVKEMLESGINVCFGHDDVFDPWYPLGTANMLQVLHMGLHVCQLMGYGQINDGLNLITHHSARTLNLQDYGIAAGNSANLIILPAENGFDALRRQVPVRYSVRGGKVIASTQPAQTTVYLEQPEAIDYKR

[2] = target: the molecule itself; assay: non-reducing SDS-PAGE and anti-FLAG western blot of lysates

binding result [1]: binds
B1: His-tagged GAPDH, purified recombinant (enzyme, E. coli, UniProt P0A9B2 1-331, looked up)
chain: MTIKVGINGFGRIGRIVFRAAQKRSDIEIVAINDLLDADYMAYMLKYDSTHGRFDGTVEVKDGHLIVNGKKIRVTAERDPANLKWDEVGVDVVAEATGLFLTDETARKHITAGAKKVVMTGPSKDNTPMFVKGANFDKYAGQDIVSNASCTTNCLAPLAKVINDNFGIIEGLMTTVHATTATQKTVDGPSHKDWRGGRGASQNIIPSSTGAAKAVGKVLPELNGKLTGMAFRVPTPNVSVVDLTVRLEKAATYEQIKAAVKAAAEGEMKGVLGYTEDDVVSTDFNGEVCTSVFDAKAGIALNDNFVKLVSWYDNETGYSNKVLDLIAHISK

B2: FLAG-tagged Hcp (hybrid-cluster protein), overexpressed in WT E. coli (enzyme, UniProt P75825 1-550, looked up)
chain: MFCVQCEQTIRTPAGNGCSYAQGMCGKTAETSDLQDLLIAALQGLSAWAVKAREYGIINHDVDSFAPRAFFSTLTNVNFDSPRIVGYAREAIALREALKAQCLAVDANARVDNPMADLQLVSDDLGELQRQAAEFTPNKDKAAIGENILGLRLLCLYGLKGAAAYMEHAHVLGQYDNDIYAQYHKIMAWLGTWPADMNALLECSMEIGQMNFKVMSILDAGETGKYGHPTPTQVNVKATAGKCILISGHDLKDLYNLLEQTEGTGVNVYTHGEMLPAHGYPELRKFKHLVGNYGSGWQNQQVEFARFPGPIVMTSNCIIDPTVGAYDDRIWTRSIVGWPGVRHLDGDDFSAVITQAQQMAGFPYSEIPHLITVGFGRQTLLGAADTLIDLVSREKLRHIFLLGGCDGARGERHYFTDFATSVPDDCLILTLACGKYRFNKLEFGDIEGLPRLVDAGQCNDAYSAIILAVTLAEKLGCGVNDLPLSLVLSWFEQKAIVILLTLLSLGVKNIVTGPTAPGFLTPDLLAVLNEKFGLRSITTVEEDMKQLLSA
stoichiometry N [2]: 2
